For test [1], the target named is ecto-domain of integrin α5β1-Fc fusion protein. The experiment in a line: SPR. Background: SPR reads the build-up and loss of mass on a sensor chip optically.
In test [2] the target is Fn N-terminal domain fragment (Fn-NTD) (human). The experiment in a line: SPR. The following applies: domain or fragment.

For orientation: Kd means a measure of binding affinity in units of concentration.

Sequence of Fn N-terminal domain fragment (Fn-NTD) (human) (P02751 32-290): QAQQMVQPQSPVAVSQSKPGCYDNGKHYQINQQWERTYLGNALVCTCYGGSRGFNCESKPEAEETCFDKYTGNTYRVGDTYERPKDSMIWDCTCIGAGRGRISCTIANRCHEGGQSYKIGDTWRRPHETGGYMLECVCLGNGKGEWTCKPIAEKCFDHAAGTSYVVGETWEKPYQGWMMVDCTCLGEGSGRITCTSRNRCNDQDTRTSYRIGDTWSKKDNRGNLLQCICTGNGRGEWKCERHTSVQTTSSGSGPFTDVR

As to “Fn + BBK32 (BBK32-bound Fn) (from UniProt O50835 21-205) (complex)”, in test [1], the Kd is 0.17 µM; the ka1 (first step, bivalent analyte model) was 75000 M⁻¹ s⁻¹; the ka2 (second step, bivalent analyte model) amounted to 8e-06 RU^-1s^-1; the kd1 (first step, bivalent analyte model) was found to be 0.012 s⁻¹. For the same substance, the kd2 (second step, bivalent analyte model) in test [1] is 0.001 s⁻¹.

Regarding GST-FnBPA-3, the Kd in test [2] came out at 10 µM.
